This is an account of results in paper doi:10.1101/2023.10.09.561517 (bioRxiv, 2023).

A word on the stoichiometry N: it is the number of molecules, sites or subunits per partner or assembly.

The target in one data set is CaMKIIα hub domain. As to the kind of experiment: mass photometry.
Data set [1] deals with CaMKIIβ full-length hub domain (residues 534-666) (human). Put plainly: mass photometry.
For data set [2] the target is unchanged. Put plainly: mass photometry. The source holds these as a separate data set.
The target is the same in data set [3]. As to the kind of experiment: crystal structure.
For data set [4] the target is unchanged. Put plainly: crystal structure. This is another data set of the same source.
The data set “SEC-MALS” concerns the molecule itself. As to the kind of experiment: SEC-MALS.

Several values for one entry are separate records, joined by “and”; a condition that tells them apart may be missing. Equal entries are not always repeated.

CaMKIIα hub domain (domain or fragment): in the data set with CaMKIIα hub domain, the stoichiometry N amounted to 16.

With “CaMKIIβ full-length hub domain (residues 534-666) (domain or fragment)”, the stoichiometry N in data set [1] was 14 and 16; in data set [2], 12 and 14 and 16; in data set [3], 14; in data set [4], 16.

B1: CaMKIIβ hub dimer variant (F585A + L622M) (domain or fragment, human, UniProt Q13554 534-666, looked up)
chain: RKQEIIKTTEQLIEAVNNGDFEAYAKICDPGLTSFEPEALGNLVEGMDFHRAYFENLLAKNSKPIHTTILNPHVHVIGEDAACIAYIRMTQYIDGQGRPRTSQSEETRVWHRRDGKWQNVHFHCSGAPVAPLQ
For the molecule B1, in the data set “SEC-MALS”, the “stoichiometry N” value was 2.
